Results on 2 molecules are retold here after US7662384B2, “Use of anti-α5β1 antibodies to inhibit cancer cell proliferation” (Facet Biotech Corporation, priority 2004, dated 2010).

The target in series [1] is T1, α5β1 integrin on the cell surface of C8161 (Homo sapiens, UniProt P05556+P08648).
T1 construct: endogenous in cells
Nature of the series: FACS analysis of cancer cell line with IIA1. Particulars: C8161 (melanoma); IIA1 10 μg/ml; background MFI ~5. In kind it is binding. The protocol:
Cells were removed with 5 mM EDTA in Tris-HCl (pH 8.0) and blocked by centrifugation in Hank's balanced salt solution containing 3% heat inactivated FBS, 1% normal goat serum (Sigma) and 1% BSA at 4° C. for 5 minutes. Cells were incubated for 30-60 minutes at 4° C. with the mouse anti-α5β1 antibody, IIA1 (10 μg/ml) in FACS buffer (PBS containing 0.1% BSA). Excess monoclonal antibody was removed by centrifugation and cells were washed two times with FACS buffer prior to resuspending in PE-anti-mouse IgG (H+ L) antibody (Southern Biotech, 1:400 dilution) for 30-60 minutes at 4° C. After washing cells were re-suspended in FACS buffer containing propidium iodide (1 μg/ml). Mean fluorescence intensity (MFI) was measured on a FACSCalibur (Becton Dickinson). Background MFI was ˜5.

The test system of series [2] is human NW231 tumors. The series is described as follows: NW231 xenograft tumor establishment, IIA1 with DOXIL. Type of series: in vivo, SCID mice. Particulars: 24 days post-implant (control TIB ~425 mm^3). The protocol:
The following experiment was conducted in order to determine the efficacy of the anti-α5β1 integrin antibody, IIA1 in combination with the chemotherapeutic agent, DOXIL®, for preventing establishment of human NW231 tumors in vivo. DOXIL® is a liposome encapsulated formulation of doxorubicin HCl, a cytotoxic anthracycline antibiotic isolated from Streptomyces peucetius. The NW231 cell line originated from breast cancer and is considered a good model for studying treatments for breast cancer.
Four to six week old female SCID mice obtained from Taconic Farms and maintained in micro-isolator cages were inoculated in the mammary fat pads with 1×10^7 NW231 cells. Animals received either TIB control (n=20) or […] (n=20) at 5 mg/kg for the first injection at the time of tumor cell inoculation. Subsequent treatments were at 0.7 mg/kg per injection. DOXIL® treatment was commenced 5 days post tumor cell inoculation. Chemotherapeutic doses were at 4 mg/kg for the first injection and at 2 mg/kg for subsequent injections. Reagents were delivered by intraperitoneal injection for four doses. Tumor volume was measured twice weekly and clinical and mortality observations were performed daily according to IACUC regulations.

Series [3] concerns the target T2, α5β1 integrin binding to fibronectin (Homo sapiens, UniProt P05556+P08648). Particulars: cited from earlier work.
Series [4] deals with VX2 tumors. To be noted: rabbit, in vivo, 10 mg/kg.
Experimental: Rabbits were inoculated on Day 0 with a cell suspension (100 μl) subcutaneously (left hind limb), and intramuscularly at a depth of about 3 mm (right hind limb). Intramuscular inoculation was carried out as follows. With the rabbit under ketamine/isoflurane anesthesia, a ˜2 cm incision was made parallel to the right femur with a scalpel on the anterior, lateral aspect of the femoral axis, ˜⅓ of the total femur length distally from the femoral-pelvic (hip) joint. Muscle groups were separated to create a ˜0.5 cm deep cavity. One VX2 tumor fragment from a donor animal was placed into the cavity. Skin was securely closed with sterile surgical staples or sutures and a topical antibiotic was applied to the wound site.
M200 was administered intravenously at 10 mg/kg dosage to a tumor-bearing rabbit and the tumor was excised 1 hour later. Tumor sections were stained with either: (i) an anti-human secondary antibody specific for tumor bound M200; (ii) IIA1 followed by an anti-mouse secondary to detect total α5β1; or (iii) a control IgG and anti-mouse secondary.
A short description of series [5]: Phase I dose-escalation study: safety / adverse events. Type of series: in vivo, human. The protocol:
The dosing levels and schedule used in the study were as follows. M200 was administered to the 21 patients on days 1, 15, 22, 29, and 36. The dosing levels and numbers of patients per level were: 0.5 mg/kg (1 patient), 1.0 mg/kg (2 patient), 2.5 mg/kg (3 patients), 5.0 mg/kg (3 patients), 10.0 mg/kg (6 patients) and 15 mg/kg (6 patients). The dose was administered as an intravenous infusion over 1 hour. The first and second doses were separated by a two week period to allow sampling for single-dose pharmacokinetic data. The real-time PK measurements performed following the first dose were used to predict each patient's peak serum concentration following the fifth dose. If the predicted peak serum concentration following the fifth dose was <750 μg/mL, the patient received all 5 doses of M200. The remaining 3 doses were given weekly and followed by a 45-day evaluation period.
Adverse events were graded using the National Cancer Institute (NCI) Common Terminology Criteria for Adverse Events (CTCAE), version 3.0. Dose-limiting toxicity was defined as any Grade-3 or Grade-4 adverse event, excluding scheduled hospitalizations or elective surgeries. Grade-3 or Grade-4 adverse events thought to be unrelated to M200 were excluded where appropriate following a review with the medical monitor and regulatory agencies.

For series [6] the following is noted: human, in vivo, 10 mg/kg.
Experimental: The serum for measuring M200 concentrations was obtained immediately before and after the first dose, and at 4, 24, 48, and 168 hours after completion of the first dose. Serum samples for measuring M200 concentrations were also taken immediately before, at the end, and 4 hours after the completion of each subsequent infusion. These samples were split and aliquots assayed before the next dose and again at the end of the study: end of 1st dose, 168 hours after 1st dose, immediately pre-dose (trough) and immediately post-dose (peak) for the 2nd, 3rd, 4th and 5th doses. The serum levels of M200 were measured by ELISA.
The plasma concentration-time data of M200 from each patient was subjected to a PK analysis. The following parameters were included in the calculations: peak (Cmax) and trough (Cmin) levels, terminal phase half-life (T1/2 β), area under the plasma-concentration time curve (AUC), elimination clearance (CL), and volume of distribution (V). Summary parameters were computed across patients from each treatment group. Changes in the PK parameters as a function of dose and time were also evaluated.
The target in series [7] is T2, α5β1 integrin binding to fibronectin. Nature of the series: in vitro activity assay: inhibition of binding of α5β1 to fibronectin. Type of series: biochemical.
The test system of series [8] is rat α5β1 integrin. The series is described as follows: species cross-reactivity of anti-α5β1 antibody. In kind it is binding.
Series [9] concerns the target α5β1 integrin found in rabbit (Oryctolagus cuniculus, UniProt A0A5F9C3C4+A0A5F9CXX2). Nature of the series: species cross-reactivity of anti-α5β1 antibody. Type of series: binding.
Series [10] relates to VX2 carcinoma. Nature of the series: M200 VX2 rabbit tumor efficacy study. Type of series: in vivo. As to the method: Starting on Day 5, tumor dimensions (Length, Width and Height) were measured in millimeters via electronic vernier calipers connected to a laptop computer at a minimum frequency of twice weekly. For consistency, the same trained technician performed the tumor measurements throughout the course of the study. Tumor volume was calculated using the formula: Length×Width×Height×0.52. Upon animal termination, tumors were carefully excised, trimmed and weighed. In addition, animals were weighed a minimum of once weekly. Representative samples of each tumor were preserved in sample cassette in formalin or OCT and flash frozen in liquid nitrogen.
Rabbits (30 total) were inoculated, either subcutaneously or intramuscularly with either a VX2 cell suspension (100 μl) or pieces of tumor (˜5-10 mm^3). The test group of 20 was treated with M200 at 10 mg/kg intravenously, twice weekly for 3 weeks. The control group of 10 animals was treated with a control IgG delivered by the same method as the M200. Tumor measurements, termination, weighing, tumor preservation and study duration were carried out according to the methods described above for the Pilot Study. In addition, one milliliter of blood was taken from an ear vessel on a weekly basis for serum analysis.

A value given as a limit tells only on which side of the number the result lay.

T2 sequence (P08648 42-894 limits assumed): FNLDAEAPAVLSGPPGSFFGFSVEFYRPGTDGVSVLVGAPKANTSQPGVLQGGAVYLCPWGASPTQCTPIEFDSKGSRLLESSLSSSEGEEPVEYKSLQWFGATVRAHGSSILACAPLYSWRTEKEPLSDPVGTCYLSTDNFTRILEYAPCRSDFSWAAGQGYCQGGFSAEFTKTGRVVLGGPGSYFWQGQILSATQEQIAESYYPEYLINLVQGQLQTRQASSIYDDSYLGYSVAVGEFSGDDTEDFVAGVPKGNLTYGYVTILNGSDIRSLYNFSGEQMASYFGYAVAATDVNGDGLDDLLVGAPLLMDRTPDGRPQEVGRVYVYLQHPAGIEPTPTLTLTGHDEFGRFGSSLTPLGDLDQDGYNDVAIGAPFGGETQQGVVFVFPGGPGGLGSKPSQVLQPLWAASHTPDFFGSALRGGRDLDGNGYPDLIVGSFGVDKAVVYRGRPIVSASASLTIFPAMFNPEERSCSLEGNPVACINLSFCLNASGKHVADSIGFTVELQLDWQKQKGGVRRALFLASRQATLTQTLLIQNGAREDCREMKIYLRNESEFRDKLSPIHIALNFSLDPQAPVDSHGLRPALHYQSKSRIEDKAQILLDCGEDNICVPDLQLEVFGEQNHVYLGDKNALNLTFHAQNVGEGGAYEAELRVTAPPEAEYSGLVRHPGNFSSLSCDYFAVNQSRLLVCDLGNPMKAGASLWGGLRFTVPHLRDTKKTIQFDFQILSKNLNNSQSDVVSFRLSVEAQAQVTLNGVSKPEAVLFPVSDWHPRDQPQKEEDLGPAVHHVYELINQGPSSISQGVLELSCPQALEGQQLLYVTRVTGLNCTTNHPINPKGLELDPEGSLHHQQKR
T2 sequence (P08648 895-1049 limits assumed): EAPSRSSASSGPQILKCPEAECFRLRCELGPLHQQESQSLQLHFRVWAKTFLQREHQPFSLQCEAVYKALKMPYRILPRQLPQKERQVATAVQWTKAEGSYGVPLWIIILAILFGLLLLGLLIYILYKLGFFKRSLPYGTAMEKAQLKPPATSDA
T2 sequence (P05556 21-798): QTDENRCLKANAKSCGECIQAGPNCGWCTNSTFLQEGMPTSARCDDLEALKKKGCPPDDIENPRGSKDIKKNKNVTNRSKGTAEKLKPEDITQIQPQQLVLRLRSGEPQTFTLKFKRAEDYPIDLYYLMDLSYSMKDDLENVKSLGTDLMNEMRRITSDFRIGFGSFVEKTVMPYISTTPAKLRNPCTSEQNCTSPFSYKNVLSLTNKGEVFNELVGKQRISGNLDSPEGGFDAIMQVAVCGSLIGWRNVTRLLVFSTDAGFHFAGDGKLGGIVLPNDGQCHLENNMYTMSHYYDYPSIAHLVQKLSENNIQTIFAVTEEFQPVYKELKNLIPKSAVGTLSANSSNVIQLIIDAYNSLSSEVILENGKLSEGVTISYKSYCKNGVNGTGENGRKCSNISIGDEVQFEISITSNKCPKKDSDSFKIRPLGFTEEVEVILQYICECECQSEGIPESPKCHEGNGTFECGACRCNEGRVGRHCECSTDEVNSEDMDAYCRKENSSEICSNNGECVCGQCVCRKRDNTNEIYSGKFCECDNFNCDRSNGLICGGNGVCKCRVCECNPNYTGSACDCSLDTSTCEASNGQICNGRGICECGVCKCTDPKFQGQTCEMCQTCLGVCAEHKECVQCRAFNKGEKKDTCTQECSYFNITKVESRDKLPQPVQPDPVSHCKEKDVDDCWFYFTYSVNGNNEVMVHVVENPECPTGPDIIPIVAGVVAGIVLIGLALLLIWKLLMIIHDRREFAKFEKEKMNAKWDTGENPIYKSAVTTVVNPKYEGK
T1 sequence (P08648 42-894 limits assumed): as the sequence (P08648 42-894 limits assumed) above
T1 sequence (P08648 895-1049 limits assumed): as the sequence (P08648 895-1049 limits assumed) above
T1 sequence (P05556 21-798): as the sequence (P05556 21-798) above
α5β1 integrin found in rabbit, sequence (A0A5F9CXX2 1-1041): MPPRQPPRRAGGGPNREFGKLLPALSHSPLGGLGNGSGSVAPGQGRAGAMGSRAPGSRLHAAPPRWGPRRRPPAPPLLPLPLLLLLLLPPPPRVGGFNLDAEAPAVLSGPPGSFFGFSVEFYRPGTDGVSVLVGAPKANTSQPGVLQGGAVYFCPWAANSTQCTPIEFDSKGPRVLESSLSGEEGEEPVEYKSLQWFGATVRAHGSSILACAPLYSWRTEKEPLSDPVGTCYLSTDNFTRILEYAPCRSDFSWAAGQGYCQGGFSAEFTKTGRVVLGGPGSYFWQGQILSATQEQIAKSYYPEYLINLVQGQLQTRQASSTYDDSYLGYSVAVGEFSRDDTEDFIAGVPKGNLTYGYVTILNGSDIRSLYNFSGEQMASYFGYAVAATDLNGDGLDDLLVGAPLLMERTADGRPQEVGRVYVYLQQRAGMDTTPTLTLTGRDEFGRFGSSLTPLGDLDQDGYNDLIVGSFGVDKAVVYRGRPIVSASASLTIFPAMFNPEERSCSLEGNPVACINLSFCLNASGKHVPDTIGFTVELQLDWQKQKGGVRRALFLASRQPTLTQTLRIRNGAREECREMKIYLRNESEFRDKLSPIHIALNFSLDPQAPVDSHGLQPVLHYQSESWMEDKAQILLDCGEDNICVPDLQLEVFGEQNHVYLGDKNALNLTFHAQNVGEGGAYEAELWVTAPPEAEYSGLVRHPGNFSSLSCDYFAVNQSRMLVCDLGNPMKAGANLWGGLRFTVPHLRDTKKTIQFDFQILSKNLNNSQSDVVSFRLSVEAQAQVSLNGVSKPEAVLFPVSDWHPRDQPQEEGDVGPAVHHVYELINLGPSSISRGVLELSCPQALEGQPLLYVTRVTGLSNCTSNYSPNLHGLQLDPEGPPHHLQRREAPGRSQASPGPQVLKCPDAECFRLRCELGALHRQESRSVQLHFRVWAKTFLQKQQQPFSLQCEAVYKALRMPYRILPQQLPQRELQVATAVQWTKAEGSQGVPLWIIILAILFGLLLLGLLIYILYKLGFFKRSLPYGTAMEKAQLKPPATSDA
α5β1 integrin found in rabbit, sequence (A0A5F9C3C4 21-798): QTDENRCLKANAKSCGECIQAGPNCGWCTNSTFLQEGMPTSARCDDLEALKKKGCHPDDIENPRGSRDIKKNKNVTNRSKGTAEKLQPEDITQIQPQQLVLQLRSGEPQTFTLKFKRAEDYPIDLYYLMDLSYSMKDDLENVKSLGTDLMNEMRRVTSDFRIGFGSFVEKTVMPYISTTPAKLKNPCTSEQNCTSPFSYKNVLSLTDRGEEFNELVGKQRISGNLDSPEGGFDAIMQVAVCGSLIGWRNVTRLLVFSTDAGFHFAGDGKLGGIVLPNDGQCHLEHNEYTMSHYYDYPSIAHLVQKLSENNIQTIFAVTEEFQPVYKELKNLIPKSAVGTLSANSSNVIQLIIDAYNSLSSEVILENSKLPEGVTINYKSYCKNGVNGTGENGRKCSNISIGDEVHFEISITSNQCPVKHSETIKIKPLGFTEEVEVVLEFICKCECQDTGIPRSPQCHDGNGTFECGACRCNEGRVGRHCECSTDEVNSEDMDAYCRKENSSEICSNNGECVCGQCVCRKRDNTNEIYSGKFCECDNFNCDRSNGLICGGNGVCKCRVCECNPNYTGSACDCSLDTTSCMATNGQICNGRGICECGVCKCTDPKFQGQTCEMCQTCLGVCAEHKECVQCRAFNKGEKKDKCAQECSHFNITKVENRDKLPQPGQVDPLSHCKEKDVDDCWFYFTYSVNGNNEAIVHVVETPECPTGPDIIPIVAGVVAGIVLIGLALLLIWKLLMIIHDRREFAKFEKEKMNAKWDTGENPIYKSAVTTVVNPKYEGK

B1: IIA1: parent mouse IgG1 class anti-α5β1 antibody shown to inhibit α5β1 integrin binding to fibronectin (antibody, V domains shown)
VH: MAVLGLLLCLVTFPSCVLSQVQLKESGPGLVAPSQSLSITCTISGFSLTDYGVHWVRQPPGKGLEWLVVIWSDGSSTYNSALKSRMTIRKDNSKSQVFLIMNSLQTDDSAMYYCARHGTYYGMTTTGDALDYWGQGTSVTVSS
VL: MDFQVQIFSFLLISASVIMSRGQIVLTQSPAIMSASLGERVTMTCTASSSVSSNYLHWYQQKPGSAPNLWIYSTSNLASGVPARFSGSGSGTSYSLTISSMEAEDAATYYCHQYLRSPPTFGGGTKLEIK
modifications: mus muscalus
Consider B1, for which the “α5β1 Surface Expression (MFI)” value in [1] is recorded as 122 MFI. Moreover, the mean tumor volume in series [2] is on record as about 175 mm^3. Further, in [3], the “inhibition of α5β1 integrin binding to fibronectin” value is on record as “inhibit α5β1 integrin binding to fibronectin”.

B2: M200: chimeric IgG4 anti-α5β1 antibody derived from IIA1; generic name volociximab (antibody, V domains shown)
VH: MAVLGLLLCLVTFPSCVLSQVQLKESGPGLVAPSQSLSITCTISGFSLTDYGVHWVRQPPGKGLEWLVVIWSDGSSTYNSALKSRMTIRKDNSKSQVFLIMNSLQTDDSAMYYCARHGTYYGMTTTGDALDYWGQGTSVTVSS
VL: MDFQVQIFSFLLISASVIMSRGQIVLTQSPAIMSASLGERVTMTCTASSSVSSNYLHWYQQKPGSAPNLWIYSTSNLASGVPARFSGSGSGTSYSLTISSMEAEDAATYYCHQYLRSPPTFGGGTKLEIKDMSVDMSV
modifications: chimeric antibody
notes: chimeric IgG4 anti-α5β1 antibody derived from IIA1; generic name volociximab
Regarding B2, in [4], the “accessibility of subcutaneous and intramuscular VX2 tumors to antibody, assessed by IHC” value is recorded as “accessible to M200”. Further, in [5] (doses up to 15 mg/kg), the dose-limiting toxicities result is listed as “no dose-limiting M200 toxicities were observed” and the tolerability in patients result is “well tolerated”. For the same molecule, in series [5] (fatigue, nausea, constipation, headache and anorexia), the “adverse events, intensity” value is given as “generally mild to moderate in intensity”. In series [5] (the one patient who received 0.5 mg/kg), the infusion reaction entry is recorded as “fever after the first dose”. In series [6], this molecule came in with a T1/2 of 15.7 days. Also, the “concentration that produces 80% inhibition of binding of α5β1 to fibronectin” value in series [7] stood at 1 µg/mL. Also, the “cross reaction with rat α5β1 integrin” value in series [8] was “does not cross react”. In addition, the “recognition of α5β1 integrin found in rabbit” value in series [9] is recorded as “does recognize”. Also, in series [10] (rabbit VX2 model), the “circulating level of M200 at which tumor growth was inhibited” value is at least 50 µg/mL. Further, the VX2 tumor growth result in series [10] (rabbit, 10 mg/kg intravenously, twice weekly for 3 weeks) is listed as “able to inhibit tumor growth”. In addition, the immunogenicity entry in [10] (rabbits, immune response as early as two weeks, eventually all animals seroconvert) is given as “immunogenic in rabbits”.
